Source: patent publication CN113912709A (SHENZHEN NATIONAL CLINICAL RES CENTER FOR INFECTIOUS …, dated 2022)

Experiments:
Test in all cases: SPR, Biacore 8K, RBD on CM5 chip, IgG injected, 1:1 model
[1] = target: T1, SARS-CoV-2 Kappa variant RBD protein (L452R and E484Q) (SARS-CoV-2, UniProt P0DTC2 319-541)
T1 construct: domain: RBD; also called L452R和E484Q

[2] = target: T2, SARS-CoV-2 Delta variant RBD protein (L452R and T478K) (SARS-CoV-2, UniProt P0DTC2 319-541)
T2 construct: domain: RBD; also called L452R和T478K

[3] = target: T3, SARS-CoV-2 RBD protein T478K mutant (SARS-CoV-2, UniProt P0DTC2 319-541)
T3 construct: domain: RBD

[4] = target: T4, SARS-CoV-2 RBD protein E484Q mutant (SARS-CoV-2, UniProt P0DTC2 319-541)
T4 construct: domain: RBD

| Binder | Kd [1] | Kd [2] | Kd [3] | Kd [4] |
| --- | --- | --- | --- | --- |
| VacW-105 (antibody, V domains shown) VH: QVQLVQSGAEVKKPGSSVKVSCKASGGTFRSYTISWVRQAPGQGLEWMGRILPILGIANYAQKFQGRVTITADKSTSTAYMELSSLRSEDTAVYYCARVTGAPVESAAWFDPWGQGTLVTVSS VL: not shown | 4.13 nM | 5.1 nM | 3.37 nM | 5.22 nM |
| VacW-209 (antibody, V domains shown) VH: QVQLVESGGGVVQPGRSLRLSCAASGFTFSSIAMHWVRQAPGKGLEWVAVMSFDGSIKYYGDSVKGRFTISRDNSKSTLYLQMNSLRAEDTAVYYCARGVQGYYDRSGYYNLDYNYGMDVWGQGTTVTVSS VL: QSVLTQPPSVSGAPGQRVTISCTGSSSNIGAGYDVHWYQQLPGTAPKLLIYGNSNRPSGVPDRFSGSKSGTSASLAITGLQAEDEADYYCQSYDSSLSGWVFGGGTKLTVL | 0.0234 nM | 0.0467 nM | 0.023 nM | 0.033 nM |
| VacW-138 (antibody, V domains shown) VH: not shown VL: AIQLTQSPFSLSASVGDRVTITCRASQGISSALAWYQQKPGKAPKLLIYDASSLESGVPSRFSGSGSGTDFTLTISSLQPEDFATYFCQQVDTYQFTFGPGTKVDIK | 3.17 nM | 3.11 nM | 1.75 nM | 3.12 nM |
| VacW-201 (antibody, V domains shown) VH: EVQLVESGGGLVQPGGSLRLSCAASGFTFSSYWMNWVRQAPGKGLEWVANIKQDGSEKYYVDSVKGRFTISRDNAKNSLYLQMNSLRAEDTAVYYCARMEYPYGGVDYWGQGTLVTVSS VL: NFMLTQPHSVSESPGKTVTISCTGSSGSIASNYVQWYQQRPGSAPTTVIYEDNQRPSGVPDRFSGSIDSSSNSASLTISGLKTEDEADYYCQSYDSSNRNWVFGGGTKLTVL | 1.71 nM | 2.14 nM | 1.64 nM | 2.25 nM |
| VacW-215 (antibody, V domains shown) VH: EVQLVESGGGLIQPGGSLRLSCAASGFTVSSNYMSWVRQAPGKGLEWVSVIYSGGSTYYADSVKGRFTISRDNSKNTLYLQMNSLRAEDTAVYYCARSTWLRGGFDYWGQGTLVTVSS VL: NFMLTQPHSVSESPGKTVTISCTGSSGSIASNYVQWYQQRPGSAPTTVIYEDNQRPSGVPDRFSGSIDSSSNSASLTISGLKTEDEADYYCQSYDSSNHFYVFGTGTKVTVL | 0.676 nM | 1.02 nM | 0.683 nM | 0.967 nM |
| VacW-212 (antibody, V domains shown) VH: EVQLVESGGGLVQPGGSLRLSCAASGFTFSSYWMNWVRQAPGKGLEWVANIKQDESEKYYVDSVKGRFTISRDNAKNSLFLQMNSLRVEDTAVYYCARMEYPYGGIDYWGQGTLVTVSA VL: NFMLTQPHSVSESPGKTVTISCTGSSGSIASNYVQWYQQRPGSAPTTVIYEDNQRPSGVPDRFSGSIDSSSNSASLTISGLKTEDEADYYCQSYDSSNRNWVFGGGTKLTVL | 1.32 nM | 1.83 nM | 1.22 nM | 1.74 nM |
